Measurements reported in the supplement of paper PMC11865577.

The sequences below were run on TO-N3-2 (biotin conjugate) (assay: pull-down binding Z-score (relative to library population); higher = stronger binding). Settings: RNA library: Library-2.
How it was run: (§1)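 An RNA library (1 μg) carrying a Cy5 or Cy3 end label was heat-folded in phosphate/NaCl/KCl buffer, then incubated for 60 min at 25 °C with streptavidin beads loaded with 100 pmol of biotin-conjugated small molecule. The beads were washed three times, and bound RNA was released in hot SDS and hybridised to a DNA barcode microarray for 20 h at 55.5 °C. Each binding score was derived by subtracting the signal from beads without compound, averaging the barcoded replicate probes after removing the highest and lowest, and expressing the result as a Z-score relative to the library mean and standard deviation.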

Sequence | pull-down binding Z-score
GAGACUUUAAAAGCGUCUC [hsa-mir-3926-1] | -1.01
GAGACUUUGUGAUUUGUCUCCAAAGCCUC [hsa-mir-6862-2_6862-1] | -0.157
GAGAGAGUGCACAGCCAGCUCAGGGAUUAAAGCUCUUUCUCUCUCUCUC [hsa-mir-7110] | 1.09
GAGAGUGCUGUCUGAAUGCAAUGC [hsa-mir-500a] | 0.766
GAGAGUGCUUUCUGAAUGCAAUGC [hsa-mir-501] | 0.716
GAGAUGUGAUCCUGCCACAUCUC [hsa-mir-1304] | -0.363
GAGCCCUGAGGGGCUC [hsa-mir-6087] | -0.191
GAGCCCUUGCACACCACCAGCCUC [hsa-mir-6845] | 0.822
GAGCCUGUCACAUCUCCAGACUC [hsa-mir-3925] | 0.208
GAGCCUUAAAGGAUGAGGUA [hsa-mir-4280] | 0.54
GAGCUCAGGAGCUC [hsa-mir-8052] | -0.448
GAGCUGGAAGGAGUGGGCCUGGCUC [hsa-mir-6847] | 1.45
GAGCUGGGUGGGGUGCCAAGCCU [hsa-mir-6819] | 2.06
GAGCUUCGUGUACAUUAUCUAUUAGAAAAUGAAGUAC [hsa-mir-4724] | 0.0115
GAGGAUGCAGGAGAGGAAGGGGGCUUCUUUUUGACGCCUACUUCAUCAGCUGCUCCUC [hsa-mir-4330] | 1.56
GAGGCCAGAGGUGCCC [hsa-mir-4292] | 1.3
GAGGCCUCUUGCCAUGGCCUCC [hsa-mir-7113] | 0.766
GAGGGAUGAGUGCACUUCACCUGC [hsa-mir-4435-1_4435-2] | 0.859
GAGGGGCAUGCACUGUGUUCACCCUG [hsa-mir-134] | 0.807

Each sequence was assayed on TO-3-N3-2 (biotin conjugate) in the same assay as above. Settings: RNA library: Library-2.
How it was run: as §1

Sequence | pull-down binding Z-score
GAAACAUCUUUUAC [hsa-mir-4514] | -0.191
GAAAUAGGCUGCGAAGAUAACAGUAUUUC [hsa-mir-3942] | -0.17
GAAAUGUGUGGAAGAUGGCAUUUC [hsa-mir-4482] | -0.00894
GAACACUAUUCCAUUGUGUUC [hsa-mir-588] | -0.701
GAACCCAAGAAAAGCUGACUUGGAGGUCCC [hsa-mir-4667] | 0.578
GAACCCAGGGAGCCAGACUGCCUGGGUUC [hsa-mir-607] | -0.182
GAACUAACUAACCAGAACUAUUUUGUUC [hsa-mir-4652] | 0.0681
GAACUUUUACGGUGAACCAGGAGGUUC [hsa-mir-629] | -0.139
GAAGAAGAAGAAGAAGAAGAAGAAGAAGAAGAAGAAGAAGAAGAAGAA [r(GAA)16] | 3.35
GAAGAUUCUGAAAAUCACUAACU [hsa-mir-6878] | 0.167
GAAGCACUGGUUAUGAUUUGCAUC [hsa-mir-3126] | 0.159
GAAGCCGCUCCCACCUGACCCUCACGGCCUC [hsa-mir-3605] | 0.468
GAAGCCUUGAUCAGAAGCUAGGAAGGCUUC [hsa-mir-4762] | 0.433
GAAGCGAGAUGUUUGUCUAAA [hsa-mir-6835] | 0.262
GAAGCUCCUAUAGCUCCUGUAGCUUC [hsa-mir-578] | 0.166
GAAGCUGUAAGACACAGCUAAGCUUU [hsa-mir-30d] | -0.00751
GAAGCUGUAAGGUGUUCAGAGGAGCUUU [hsa-mir-30e] | 0.908
GAAGCUGUGAAGCCACAGAUGGGCUUU [hsa-mir-30a] | 0.0568
GAAGGAAGGCAAGGCUGUCUGUCCAUC [hsa-mir-4800] | 0.513
GAAGGGAAGCUGGGAACCUGACUGCCUC [hsa-mir-6867] | 0.402
GAAGGGGAGUUUCCCUCUAUUCCCUUC [hsa-mir-3679] | -0.155
GAAUGAAAAAAUGAAUCAUC [hsa-mir-421] | 0.0689
GAAUUCGAUUCAUCAAAGCGAGUC [hsa-mir-485] | 0.143
GAAUUCGCUUUAUUUAUGUUGAAUC [hsa-mir-377] | -0.33
GACAAUAUGUAUAAUGUUCAUAAGUCAUUC [hsa-mir-384] | 0.227

Sequence | pull-down binding Z-score
GACACCUGGAUUCAGAGAACAUGUC [hsa-mir-1276] | -0.0538
GACACUUUCACUAUAUAUAGUGGC [hsa-mir-3156-3] | -0.0836
GACAGGCUGGCCUCUGGAUGACCUGC [hsa-mir-5189] | -0.186
GACAGGGAAAAGCACACAAGGAACUUGUC [hsa-mir-3909] | 0.112
GACAGGGCAGAGGGUUGCGCCCCCUC [hsa-mir-6511b-1_6511b-2_6511a-2_6511a-3_6511a-1_6511a-4] | 0.284
GACAUCCCUCAUCUGUUUCUCACUGGUGUC [hsa-mir-6830] | 0.244
GACAUCUGGGCCAACUCUGAUCUC [hsa-mir-6515] | -0.126
GACAUGCUCUGACUCCCCUGAUGUC [hsa-mir-6852] | 0.244
GACCAAAAGUCAACAUUAAACAACAAAUCUUGGCC [hsa-mir-5708] | -0.109
GACCCCCAUGCACCCCUGUGGGCCCCUGGCAUC [hsa-mir-1257] | -0.0626
GACCGUUGGCAUCUUAAUUACCCUC [hsa-mir-532] | -0.339
GACCUGGAUGUGUAGGAGCUAAGACACACUCCAGGGG [hsa-mir-920] | 0.531
GACGAUUUGAAUUAAUAAAUUC [hsa-mir-579] | 0.0871
GACGGCGCCCGCCCUGGCCCUGGC [hsa-mir-4745] | 0.0825
GACGGUGGGGGCCACGCUGACAGCCGC [hsa-mir-6804] | 0.752
GACGUCCAAUCUCUUUGGGACGCC [hsa-mir-2682] | -0.309
GACGUGAAGGGACCACAUCCCGCUUCAUGUC [hsa-mir-4697] | -0.362
GACUGCUCAAGGUCAAAGGGGUC [hsa-mir-3918] | 0.119
GACUGGACAACAUGAUGAGCCCAAACCAAUC [hsa-mir-5092] | 0.166
GACUUCCAUGACAUGAAAUAGGAAGUC [hsa-mir-616] | -0.183
GACUUGAGAUUAUAGUC [hsa-mir-3685] | -0.13
GACUUUUCUAUUUUCCAAAAGC [hsa-mir-423] | -0.142
GAGAAACUUGAGGUCUCUGGGAGUUGCUUAAACCAGUUGACCGUAACCUGGCCAGAGAAUUCUGAUAGUGUC [hsa-mir-6740] | -0.00402
GAGAACUCACGGUGCCUGUGGUUCGA [hsa-mir-3125] | -0.203
GAGACAACUUCCCAGUCUC [hsa-mir-6717] | -0.519

Sequence | pull-down binding Z-score
GAGACACCCGCUACCUGGUGUU [hsa-mir-4321] | -0.213
GAGACACUC [hsa-mir-6126] | -0.578
GAGACGCUUUUAAAGUCUC [hsa-mir-3926-2] | -0.552
GAGACUGCCCAAAGACUCUUCAGUAUC [hsa-mir-2681] | 0.272
GAGACUUAGAAAUCCCUAAGUCUC [hsa-mir-3921] | -0.246
GAGACUUUAAAAGCGUCUC [hsa-mir-3926-1] | -0.343
GAGACUUUGUGAUUUGUCUCCAAAGCCUC [hsa-mir-6862-2_6862-1] | -0.468
GAGAGAGUGCACAGCCAGCUCAGGGAUUAAAGCUCUUUCUCUCUCUCUC [hsa-mir-7110] | 0.535
GAGAGUGCUGUCUGAAUGCAAUGC [hsa-mir-500a] | 0.291
GAGAGUGCUUUCUGAAUGCAAUGC [hsa-mir-501] | -0.161
GAGAUGUGAUCCUGCCACAUCUC [hsa-mir-1304] | -0.00394
GAGCCCUGAGGGGCUC [hsa-mir-6087] | -0.303
GAGCCCUUGCACACCACCAGCCUC [hsa-mir-6845] | 0.134
GAGCCUGUCACAUCUCCAGACUC [hsa-mir-3925] | -0.227
GAGCCUUAAAGGAUGAGGUA [hsa-mir-4280] | 0.063
GAGCUCAGGAGCUC [hsa-mir-8052] | -0.529
GAGCUGGAAGGAGUGGGCCUGGCUC [hsa-mir-6847] | 0.387
GAGCUGGGUGGGGUGCCAAGCCU [hsa-mir-6819] | 1.71
GAGCUUCGUGUACAUUAUCUAUUAGAAAAUGAAGUAC [hsa-mir-4724] | -0.033
GAGGAUGCAGGAGAGGAAGGGGGCUUCUUUUUGACGCCUACUUCAUCAGCUGCUCCUC [hsa-mir-4330] | 2.41
GAGGCCAGAGGUGCCC [hsa-mir-4292] | 0.122
GAGGCCUCUUGCCAUGGCCUCC [hsa-mir-7113] | -0.378
GAGGGAUGAGUGCACUUCACCUGC [hsa-mir-4435-1_4435-2] | 0.0965
GAGGGGCAUGCACUGUGUUCACCCUG [hsa-mir-134] | -0.0434
